Assay results: patent US20060263802A1 (CRUCELL HOLLAND B V, published 2006)

Tests used:
Test in all cases: PEPSCAN ELISA, looped peptide, antibody 10 µg/ml
[1] = molecular target: looped/cyclic peptide … (rabies virus strain ERA)
[2] = molecular target: looped/cyclic peptide … (rabies virus strain ERA); remark: listed apart in the source
[3] = molecular target: looped/cyclic peptide … (rabies virus strain ERA); remark: listed apart in the source
[4] = molecular target: looped/cyclic peptide … (rabies virus strain ERA); remark: listed apart in the source
[5] = molecular target: looped/cyclic peptide … (rabies virus strain ERA); remark: listed apart in the source
[6] = molecular target: looped/cyclic peptide … (rabies virus strain ERA); remark: listed apart in the source
[7] = molecular target: looped/cyclic peptide … (rabies virus strain ERA); remark: listed apart in the source
[8] = molecular target: looped/cyclic peptide … (rabies virus strain ERA); remark: listed apart in the source
[9] = molecular target: looped/cyclic peptide … (rabies virus strain ERA); remark: listed apart in the source
[10] = molecular target: looped/cyclic peptide … (rabies virus strain ERA); remark: listed apart in the source
[11] = molecular target: looped/cyclic peptide … (rabies virus strain ERA); remark: listed apart in the source
[12] = molecular target: looped/cyclic peptide … (rabies virus strain ERA); remark: listed apart in the source
[13] = molecular target: looped/cyclic peptide … (rabies virus strain ERA); remark: listed apart in the source
[14] = molecular target: looped/cyclic peptide … (rabies virus strain ERA); remark: listed apart in the source
[15] = molecular target: looped/cyclic peptide … (rabies virus strain ERA); remark: listed apart in the source
[16] = molecular target: looped/cyclic peptide … (rabies virus strain ERA); remark: listed apart in the source
[17] = molecular target: looped/cyclic peptide … (rabies virus strain ERA); remark: listed apart in the source
[18] = molecular target: looped/cyclic peptide … (rabies virus strain ERA); remark: listed apart in the source
[19] = molecular target: looped/cyclic peptide … (rabies virus strain ERA); remark: listed apart in the source
[20] = molecular target: looped/cyclic peptide … (rabies virus strain ERA); remark: listed apart in the source
[21] = molecular target: looped/cyclic peptide … (rabies virus strain ERA); remark: listed apart in the source
[22] = molecular target: looped/cyclic peptide … (rabies virus strain ERA); remark: listed apart in the source
[23] = molecular target: looped/cyclic peptide … (rabies virus strain ERA); remark: listed apart in the source
[24] = molecular target: looped/cyclic peptide … (rabies virus strain ERA); remark: listed apart in the source
[25] = molecular target: looped/cyclic peptide … (rabies virus strain ERA); remark: listed apart in the source
[26] = molecular target: looped/cyclic peptide … (rabies virus strain ERA); remark: listed apart in the source
[27] = molecular target: looped/cyclic peptide … (rabies virus strain ERA); remark: listed apart in the source
[28] = molecular target: looped/cyclic peptide DIHHLSCPNNLVVED (rabies virus strain ERA)
[29] = molecular target: looped/cyclic peptide … (rabies virus strain ERA); remark: listed apart in the source
[30] = molecular target: looped/cyclic peptide … (rabies virus strain ERA); remark: listed apart in the source
[31] = molecular target: looped/cyclic peptide … (rabies virus strain ERA); remark: listed apart in the source
[32] = molecular target: looped/cyclic peptide … (rabies virus strain ERA); remark: listed apart in the source
[33] = molecular target: looped/cyclic peptide … (rabies virus strain ERA); remark: listed apart in the source
[34] = molecular target: looped/cyclic peptide … (rabies virus strain ERA); remark: listed apart in the source
[35] = molecular target: looped/cyclic peptide … (rabies virus strain ERA); remark: listed apart in the source
[36] = molecular target: looped/cyclic peptide … (rabies virus strain ERA); remark: listed apart in the source
[37] = molecular target: looped/cyclic peptide … (rabies virus strain ERA); remark: listed apart in the source
[38] = molecular target: looped/cyclic peptide … (rabies virus strain ERA); remark: listed apart in the source
[39] = molecular target: looped/cyclic peptide … (rabies virus strain ERA); remark: listed apart in the source
[40] = molecular target: looped/cyclic peptide […] (rabies virus strain ERA)
[41] = molecular target: looped/cyclic peptide … (rabies virus strain ERA); remark: listed apart in the source
[42] = molecular target: looped/cyclic peptide … (rabies virus strain ERA); remark: listed apart in the source
[43] = molecular target: looped/cyclic peptide … (rabies virus strain ERA); remark: listed apart in the source
[44] = molecular target: looped/cyclic peptide … (rabies virus strain ERA); remark: listed apart in the source
[45] = molecular target: looped/cyclic peptide … (rabies virus strain ERA); remark: listed apart in the source
[46] = molecular target: looped/cyclic peptide … (rabies virus strain ERA); remark: listed apart in the source
[47] = molecular target: looped/cyclic peptide … (rabies virus strain ERA); remark: listed apart in the source
[48] = molecular target: looped/cyclic peptide … (rabies virus strain ERA); remark: listed apart in the source
[49] = molecular target: looped/cyclic peptide … (rabies virus strain ERA); remark: listed apart in the source
[50] = molecular target: looped/cyclic peptide … (rabies virus strain ERA); remark: listed apart in the source
[51] = molecular target: looped/cyclic peptide … (rabies virus strain ERA); remark: listed apart in the source
[52] = molecular target: looped/cyclic peptide … (rabies virus strain ERA); remark: listed apart in the source
[53] = molecular target: looped/cyclic peptide … (rabies virus strain ERA); remark: listed apart in the source
[54] = molecular target: looped/cyclic peptide … (rabies virus strain ERA); remark: listed apart in the source
[55] = molecular target: looped/cyclic peptide … (rabies virus strain ERA); remark: listed apart in the source
[56] = molecular target: looped/cyclic peptide … (rabies virus strain ERA); remark: listed apart in the source
[57] = molecular target: looped/cyclic peptide … (rabies virus strain ERA); remark: listed apart in the source
[58] = molecular target: looped/cyclic peptide … (rabies virus strain ERA); remark: listed apart in the source
[59] = molecular target: looped/cyclic peptide … (rabies virus strain ERA); remark: listed apart in the source
[60] = molecular target: looped/cyclic peptide … (rabies virus strain ERA); remark: listed apart in the source
[61] = molecular target: looped/cyclic peptide … (rabies virus strain ERA); remark: listed apart in the source
[62] = molecular target: looped/cyclic peptide … (rabies virus strain ERA); remark: listed apart in the source
[63] = molecular target: looped/cyclic peptide … (rabies virus strain ERA); remark: listed apart in the source
[64] = molecular target: looped/cyclic peptide … (rabies virus strain ERA); remark: listed apart in the source
[65] = molecular target: looped/cyclic peptide … (rabies virus strain ERA); remark: listed apart in the source
[66] = molecular target: looped/cyclic peptide … (rabies virus strain ERA); remark: listed apart in the source
[67] = molecular target: looped/cyclic peptide … (rabies virus strain ERA); remark: listed apart in the source
[68] = molecular target: looped/cyclic peptide … (rabies virus strain ERA); remark: listed apart in the source
[69] = molecular target: looped/cyclic peptide … (rabies virus strain ERA); remark: listed apart in the source
[70] = molecular target: looped/cyclic peptide … (rabies virus strain ERA); remark: listed apart in the source
[71] = molecular target: looped/cyclic peptide … (rabies virus strain ERA); remark: listed apart in the source
[72] = molecular target: looped/cyclic peptide … (rabies virus strain ERA); remark: listed apart in the source
[73] = molecular target: looped/cyclic peptide … (rabies virus strain ERA); remark: listed apart in the source
[74] = molecular target: looped/cyclic peptide … (rabies virus strain ERA); remark: listed apart in the source
[75] = molecular target: looped/cyclic peptide … (rabies virus strain ERA); remark: listed apart in the source

B1: human monoclonal antibody CRJB (antibody, V domains shown)
VH: QITLKETGPTLVKPTQTLTLTCTFSGFSLSTSGVGVGWIRQPPGKALEWVTLIYWDDDKRYSPSLENRVTIRKDTSKNQVALTMTNMDPLDTGTYYCAHRQHISSFPWFDSWGQGTLVTVSS
VL: SYVLTQPPSVSVAPGKTARINCGGNNIEYRSVHWYQQKSGQAPVAVIYDNSDRPSGIPERFSGSKSGNTATLTISRVEAGDEADYYCQVWDISSDVVFGGGTKLTVLG
For B1, the OD value [1] was 79 OD, the OD value [2] was 73 OD and the OD value [3] was 90 OD. The OD value [4] was 92 OD, the OD value [5] was 66 OD and the OD value [6] was 93 OD. It also gave an OD value [7] of 68 OD, an OD value [8] of 71 OD and an OD value [9] of 68 OD. The OD value [10] was 76 OD, the OD value [11] was 99 OD and the OD value [12] was 60 OD. The OD value [13] was 71 OD, the OD value [14] was 83 OD and the OD value [15] was 82 OD. The OD value [16] was 85 OD, the OD value [17] was 64 OD and the OD value [18] was 72 OD. For the same binder, the OD value [19] was 88 OD, the OD value [20] was 72 OD and the OD value [21] was 61 OD. The OD value [22] was 60 OD, the OD value [23] was 70 OD and the OD value [24] was 70 OD. The OD value [25] was 83 OD, the OD value [26] was 73 OD and the OD value [27] was 78 OD. It also gave an OD value [28] of 48 OD, an OD value [29] of 99 OD and an OD value [30] of 83 OD. It also gave an OD value [31] of 51 OD, an OD value [32] of 83 OD and an OD value [33] of 78 OD. It also gave an OD value [34] of 60 OD, an OD value [35] of 71 OD and an OD value [36] of 65 OD. For the same binder, the OD value [37] was 112 OD, the OD value [38] was 79 OD and the OD value [39] was 82 OD. For the same binder, the OD value [40] was 138 OD, the OD value [41] was 65 OD and the OD value [42] was 60 OD. The OD value [43] was 80 OD, the OD value [44] was 63 OD and the OD value [45] was 58 OD. For the same binder, the OD value [46] was 54 OD, the OD value [47] was 86 OD and the OD value [48] was 72 OD. The OD value [49] was 75 OD, the OD value [50] was 49 OD and the OD value [51] was 74 OD. It also gave an OD value [52] of 80 OD, an OD value [53] of 82 OD and an OD value [54] of 93 OD. For the same binder, the OD value [55] was 80 OD, the OD value [56] was 90 OD and the OD value [57] was 58 OD. The OD value [58] was 96 OD, the OD value [59] was 92 OD and the OD value [60] was 68 OD. For the same binder, the OD value [61] was 75 OD, the OD value [62] was 111 OD and the OD value [63] was 59 OD. For the same binder, the OD value [64] was 65 OD, the OD value [65] was 57 OD and the OD value [66] was 93 OD. For the same binder, the OD value [67] was 71 OD, the OD value [68] was 68 OD and the OD value [69] was 118 OD. The OD value [70] was 55 OD, the OD value [71] was 64 OD and the OD value [72] was 85 OD. The OD value [73] was 77 OD, the OD value [74] was 74 OD and the OD value [75] was 54 OD.
